The source of these data is US20220293215A1 (BROAD INSTITUTE, published 2022).

This test deals with T1, I-A^b (MHCII) of murine bone marrow-derived dendritic cells from C57BL/6J mice (mouse, UniProt P14434 24-256; P14483 28-265).
T1 construct: whole, on cells; also called H2-IA
T1 sequence (MHC II alpha, looked up): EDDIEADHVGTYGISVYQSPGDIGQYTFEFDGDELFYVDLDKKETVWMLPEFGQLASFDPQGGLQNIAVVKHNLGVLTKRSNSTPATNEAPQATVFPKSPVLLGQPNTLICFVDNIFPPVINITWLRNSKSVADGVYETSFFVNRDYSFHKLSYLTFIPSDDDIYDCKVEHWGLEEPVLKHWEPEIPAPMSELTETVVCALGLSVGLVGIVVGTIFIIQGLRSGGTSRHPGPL
T1 sequence (MHC II beta, looked up): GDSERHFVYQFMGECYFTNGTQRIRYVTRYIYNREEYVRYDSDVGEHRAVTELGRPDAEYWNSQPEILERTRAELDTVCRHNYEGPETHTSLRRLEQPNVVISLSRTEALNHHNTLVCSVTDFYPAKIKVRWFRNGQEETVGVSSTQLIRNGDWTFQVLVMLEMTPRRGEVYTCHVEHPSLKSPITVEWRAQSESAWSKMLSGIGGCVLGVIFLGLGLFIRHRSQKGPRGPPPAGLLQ
The experiment in a line: MHCII peptidomics: Y3P IP of peptide-MHCII from BMDCs exposed to live Listeria, iTRAQ LC-MS/MS.
For YPGSDETPPVVNPGETN [Listeria peptide YPGSDETPPVVNPGETN (lmo2185)], the logFC is 1.86 log2 fold change, Listeria 6 hr versus 10 min.

For the molecule GTKEKVVATPVSNVSTSSA (also called lmo0186_285-303) [Listeria peptide GTKEKVVATPVSNVSTSSA (lmo0186)], the logFC is 0.489 log2 fold change, Listeria 6 hr versus 10 min.

Turning to RYVFDTAKATAASSYPGSDETPPVVNPGETNPP [Listeria peptide RYVFDTAKATAASSYPGSDETPPVVNPGETNPP (lmo2185)], the logFC was 0.634 log2 fold change, Listeria 6 hr versus 10 min.

GGINQAYTGSTALSDGLN (also called lmo2360_289-306) [Listeria peptide GGINQAYTGSTALSDGLN (lmo2360)]: the logFC was 0.555 log2 fold change, Listeria 6 hr versus 10 min.

On to DDTTVKFTLPTVAPAFEN [Listeria peptide DDTTVKFTLPTVAPAFEN (lmo0135)], for which the logFC is 0.26 log2 fold change, Listeria 6 hr versus 10 min.

Turning to AVDDTTVKFTLPTVAPAFENTIK [Listeria peptide AVDDTTVKFTLPTVAPAFENTIK (lmo0135)], the logFC was 0.464 log2 fold change, Listeria 6 hr versus 10 min.

Regarding VDDTTVKFTLPTVAPAFE [Listeria peptide VDDTTVKFTLPTVAPAFE (lmo0135)], the logFC was 0.455 log2 fold change, Listeria 6 hr versus 10 min.

For STVVVEAGDTLWGIAQSKGTT (also called lmo0582a_26-46) [Listeria peptide STVVVEAGDTLWGIAQSKGTT (lmo0582 (lap))], the logFC was 0.489 log2 fold change, Listeria 6 hr versus 10 min.

As to YVFDTAKATAASSYPGSDETPP [Listeria peptide YVFDTAKATAASSYPGSDETPP (lmo2185)], the logFC is 0.611 log2 fold change, Listeria 6 hr versus 10 min.

ADFRYVFDTAKATAASSYPG (also called lmo2185_293-312) [Listeria peptide ADFRYVFDTAKATAASSYPG (lmo2185)]: the logFC is 1.57 log2 fold change, Listeria 6 hr versus 10 min.

Take YPGSDETPPVVNPGE [Listeria peptide YPGSDETPPVVNPGE (lmo2185)]: the logFC was 0.785 log2 fold change, Listeria 6 hr versus 10 min.

Regarding GGINQAYTGSTALSDG [Listeria peptide GGINQAYTGSTALSDG (lmo2360)], the logFC was 0.239 log2 fold change, Listeria 6 hr versus 10 min.

As to SSYPGSDETPPVVNPGETNPP [Listeria peptide SSYPGSDETPPVVNPGETNPP (lmo2185)], the logFC is 0.292 log2 fold change, Listeria 6 hr versus 10 min.

In the case of VETKADIDALSLLSDKIFVTNQT [Listeria peptide VETKADIDALSLLSDKIFVTNQT (lmo1451 (ispH))], the logFC was 1.06 log2 fold change, Listeria 6 hr versus 10 min.

As for DGLTWHDGKPLTADDV [Listeria peptide DGLTWHDGKPLTADDV (lmo0135)], the logFC was 1.02 log2 fold change, Listeria 6 hr versus 10 min.

Turning to DDTTVKFTLPTVAPAFE [Listeria peptide DDTTVKFTLPTVAPAFE (lmo0135)], the logFC was 0.387 log2 fold change, Listeria 6 hr versus 10 min.

With DDTTVKFTLPTVAPAFENT [Listeria peptide DDTTVKFTLPTVAPAFENT (lmo0135)], the logFC was 0.786 log2 fold change, Listeria 6 hr versus 10 min.

With GINQAYTGSTALSDG [Listeria peptide GINQAYTGSTALSDG (lmo2360)], the logFC was 0.261 log2 fold change, Listeria 6 hr versus 10 min.

Turning to RYVFDTAKATAASSYPGSDETPP [Listeria peptide RYVFDTAKATAASSYPGSDETPP (lmo2185)], the logFC was 0.271 log2 fold change, Listeria 6 hr versus 10 min.

On to DFRYVFDTAKATAASSYPGSDETPP [Listeria peptide DFRYVFDTAKATAASSYPGSDETPP (lmo2185)], for which the logFC was 0.678 log2 fold change, Listeria 6 hr versus 10 min.

On to KEKVVATPVSNVSTSS [Listeria peptide KEKVVATPVSNVSTSS (lmo0186)], for which the logFC was -0.21 log2 fold change, Listeria 6 hr versus 10 min.

As to GTKEKVVATPVSNVST [Listeria peptide GTKEKVVATPVSNVST (lmo0186)], the logFC was 0.0371 log2 fold change, Listeria 6 hr versus 10 min.

With TKEKVVATPVSNVSTSS [Listeria peptide TKEKVVATPVSNVSTSS (lmo0186)], the logFC was -0.286 log2 fold change, Listeria 6 hr versus 10 min.

In the case of TTVKFTLPTVAPAFENT [Listeria peptide TTVKFTLPTVAPAFENT (lmo0135)], the logFC was 0.0598 log2 fold change, Listeria 6 hr versus 10 min.

For IAVTAFAAPTIASA (also called lmo0582b_12-25) [Listeria peptide IAVTAFAAPTIASA (lmo0582 (lap))], the logFC was 0.181 log2 fold change, Listeria 6 hr versus 10 min.

Regarding VDDTTVKFTLPTVAPAFENT (also called lmo0135_150-169) [Listeria peptide VDDTTVKFTLPTVAPAFENT (lmo0135)], the logFC was 0.844 log2 fold change, Listeria 6 hr versus 10 min.

As for AVDDTTVKFTLPTVAPAFENT [Listeria peptide AVDDTTVKFTLPTVAPAFENT (lmo0135)], the logFC is 0.871 log2 fold change, Listeria 6 hr versus 10 min.

As to ADFRYVFDTAKATAASSYPGSDETPP [Listeria peptide ADFRYVFDTAKATAASSYPGSDETPP (lmo2185)], the logFC is 1.56 log2 fold change, Listeria 6 hr versus 10 min.

APGQETQHYYGLPVADSAIDR (also called lmo2558_533-553) [Listeria peptide APGQETQHYYGLPVADSAIDR (lmo2558 (ami))]: the logFC is 0.856 log2 fold change, Listeria 6 hr versus 10 min.

Take EAKELVDNAPKALKEGIA [Listeria peptide EAKELVDNAPKALKEGIA (lmo0251 (rplL))]: the logFC was 0.93 log2 fold change, Listeria 6 hr versus 10 min.
